Data on 1 substance can be found in PMC7241686.

For the assay, the target named is HA trimer from A/New Caledonia/20/1999 (H1N1), soluble trimerized HA ectodomain (Influenza A virus A/New Caledonia/20/1999 (H1N1)). Briefly: SEC.

Usually stoichiometry N stands for a count of units in the complex or per binding partner.

For “HA trimer from A/New Caledonia/20/1999 (H1N1), soluble trimerized HA ectodomain (domain or fragment)”, the stoichiometry N came out at 3.
